From a protein production outcome set (Wang et al. 2014)

Experiment: label from the status in PepcDB records

MKINQLWQEPKQRSKRYYLLDNIFSAITHGIGFGLAIAGLVVLIVKAAHTGSPMRIVTFTIYGACLVLLYLFSTLYHSLVFTRAKNVFQIFDHSSIFLLIAGSYTPYSLVAIGGVWGWTLFGLIWGLTIFGIIYYVFNRGKHVIFDTILYVAMGWLVILSGPYLYVRLSSTGFWLLVGGGIAYTIGAILFSMRSVPFIHTIWHLFIILGSILMYFSVLLYV
protein production: failed

MKKTGWGILGAVAAFTGYAYWSTKHLTVTDYEILSDKIPAEWDGATFVQLSDLHSASFGLYNNPLLSIVNELAPDAVFLTGDMIDGDESPFVTMAVVRKLAKEFPVFYVSGNHEGRSAFYEDFKADMEKHHVAVLENERYFLRKDGAAIMVAGVKDPRFVRDDWAEKELPKQVWEEEALKEALDEATANLSPDYFTILLAHRPEFWPLYQAYPVDLVLSGHAHGGQFRLPLTEGLFAPGQGFMPKWTAGLHSAGGKSLIVSRGLGNVTKLPRLFNDPEIIRITLKAKGDARENLEHHHHHH
protein production: failed

VMVFISSSLNSFRSEKRYSRSLTIAEFKCKLELVVGSPASCMELELYGADDKFYSKLDQEDALLGSYPVDDGCSIHVIDHSG
protein production: not failed

MKVLCINPPDDLAALLGDGASFVSTMEPLGLLYVAAACREAGHEVAFIDAYAENLDEETLMRRIRDAAPQVVSFTSFTSNGGFLYTFGRRLRQEMPGVHVLLGNVHATIYARQYLASGCCDVVVRGEGEEVMPALLRVLEEGGDLATVPSIAYVRDGVVAETGGHAFVRDLSTLPLPARDLTRKELYSFARTPNFSLYRTPEGKTEKHLFSSRGCVNRCTFCVAHKNIGIRVRPIDSVIGEVDLLLREYDAGYIFFCDSLFTSRKKRIIELSDALRHHFPGLRWGCEAHVNTIDEDSVRAMAAGGCVDMNFGIESGVDRLLTAVNKRQTTAQIADAIRMVKRVSRINAIGLFILGLPGERPEDSDATIDFACSLPLDMAQFSILTPYPGSPIFEQLRAEGIIDDGVRPGDTLDPEVWRRYSSYASFSDNKPIWVTPEHSVEGLLAAQKRALRRFYLRPRPFLIQLRRLRPADLLDTARTFFKTFF
protein production: failed

MIRKLDKAEFQQATTLALEVYLQCGQDDFEDEGLESFKSFIFNDKLMNELCIYGAFEENKLIGIMGTKNEGKHISLFFIKKEFHRKGIGKQLFDYSQCDCPANEITVNSSTYAIRFYESLGFEKTNDRQQTNGISYTPMKLISNKLEHHHHHH
protein production: not failed

MRVEALGKVAPLPQAQTPVSLNEASLEELMALPGIGPVLARRIVEGRPYARVEDLLKVKGIGPATLERLRPYLRP
protein production: not failed

MSEPSLDKSSFNQPSWRNALAGLQMLFVAFGALVLMPLITGLDPSVALFTAGIGTILFQFITKQQVPLFLASSFVFIAPIAYSVQTWGIAVAMGSLFVTGLVYVLIASVVAVRGAGFLHKLMPPVVTGPIIMVIGLSLAPIAVNMAMGKAGDGSAVLFPYADSLIVSMSALITTLLVATLGKGIFRLIPIMAGVFVGYIMASVMGMVSTEAIANSEWFAIPNFVTPEFNLTAILFMLPVAIAPAIEHVGDIIAIGSVTGKDYTKSPGLHRTLLGDGLATSLASLFGGPPNTTYSEVTGAVMLTKMFNPKIMLWAAAFAIGLAFVAKFGLALQTIPAPVMGGILILLFGSIAGVGMNILIKAQVDLAEQRNLVIVSTTLVFGIGGMAIGNDDFSLTGISLCGLVAIALNAIIPQTQLEEESLVQEETIVEDLVEHAKGKEIN
protein production: failed

MVMQQIKKIGNSFWYMTPVSETDRPILGMVVGQEKTLMIDAGNSEEHAQLFLEMLKEQNVSNPDFVALTHWHWDHIFGLPVLQDALSIAHSETKKEMRTLVSYEWTDEALDARVKEGTEIAFCADCIKKEFEEKARNINIIPPTLTFQNQMELDLGEVTCVLKHVGGDHAHDSVVIYVKEEKILFLGDCIYADIFSSKWNYTTKRTFALIDELEKFDAETYILSHGEAINREEFLQEIRMLKAVGTYTEAHKGDEEKIKAAYKQELDRELNEDELETITYFVNGYEMNNQ
protein production: failed

YDASPAYYLYTSGSTGTPKCVVLNNRATAHVLQETIDFWGINDKDIHLAATPFHHDMSIFDLMAPLSVGGTLVVPTLEEAKSAVAWAELIERYQVSIWCTVPAMVDMLLTSAEPSQLQSIRLINQGGDYVKPSVVQKLREILPNTRLISIGGPTETTIWSIWHEITSEDI
protein production: failed

MGHHHHHHSHKPIKVEKTVTINKPADELYRYWHNFENLPTFMKHLKSVKVYNEKRSHWIANAPLGNSVEWDADILEDRENEFISWASAEGADVENSGFVRFQKAPGDVPGQAASRLRGTEVKVVLEYNLPGGALAAVVAKLFGEEPEQQIGDELRRFKM
protein production: not failed
